The results in this text go back to patent US20260216242A1, “ALPP-SPECIFIC VARIANT ANTIGEN BINDING MOLECULES” (ALMAC DISCOVERY LIMITED, priority 2022, published 2026).

Series [1] addresses T1, ALPP (Homo sapiens, UniProt P05187). Description: Epitope binning by BLI competition assay. It is filed as binding. The settings on record: BLI competition on immobilised ALPP. How it is done: To determine epitope cross reactivity BLI competition assays were conducted. AR2G sensors were used and ALPP immobilised as above. ALPP sensors were then dipped into a well containing a saturating concentration of the initial binder for ten minutes to get an association curve. The sensor was then dipped into a well containing the same concentration of initial binder plus 20 nM of a secondary binding.
An increase in the association curve was indicative that the second VHH bound to a distinct epitope from the initial binder. Monomers with identical CDR3s were grouped as likely to be in the same epitope bin and only one from each group used in the epitope binning experiment.

The target in series [2] is T1, ALPP. Nature of the series: BLI binding kinetics, human ALPP immobilised on AR2G sensors (KD / KD apparent). As to conditions: VHH domains. How it is done: Binding kinetics were determined using the Biolayer Interferometry (BLI) Octet K2 system (Sartorius). Human ALPP, ALPPL2, ALPL (each fused with a cysteine stabilised leucine zipper) and ALPI, (SEQ ID NO: 265, SEQ ID NO: 266 and SEQ ID NO: 267 and SEQ ID NO: 264 respectively) were immobilised in sodium acetate pH5 buffer to AR2G sensors using amine coupling. All assays were conducted in PBS with a plate temperature of 25° C. Ka (M^−1s^−1), Kd (s^−1) and KD (nM) values were determined using Octet Data Analysis High Throughput software (ForteBio) for Biolayer Interferometry.
(§1) Binding kinetics were determined using the Biolayer Interferometry (BLI) Octet K2 or R4 system (Sartorius). Human ALPP, ALPPL2 and ALPL all fused with a disulphide stabilised leucine zipper (SEQ ID NO: 265, SEQ ID NO: 266, and SEQ ID NO: 267) and ALPI His (SEQ ID NO: 264) were used in BLI experiments. For KD apparent measurements, the ALPP proteins were immobilised in sodium acetate pH5 buffer to AR2G sensors using amine coupling. To measure 1:1 interactions, AHC biosensors were used to immobilise Fc-fused proteins. All assays were conducted in HBS-EP with a plate temperature of 25° C. Ka (M^−1s^−1), Kd (s^−1) and KD (nM) values were determined using Octet Data Analysis High Throughput software (Sartorius) for Biolayer Interferometry.
as §1, with “NO:264)” for “NO: 264)”
Background: In BLI a coated tip is dipped into the sample, and binding shifts an interference pattern.

Another series addresses T2, ALPI His homodimer (Homo sapiens, UniProt P09923).
T2 sequence (P09923 with tags, fused parts or gaps): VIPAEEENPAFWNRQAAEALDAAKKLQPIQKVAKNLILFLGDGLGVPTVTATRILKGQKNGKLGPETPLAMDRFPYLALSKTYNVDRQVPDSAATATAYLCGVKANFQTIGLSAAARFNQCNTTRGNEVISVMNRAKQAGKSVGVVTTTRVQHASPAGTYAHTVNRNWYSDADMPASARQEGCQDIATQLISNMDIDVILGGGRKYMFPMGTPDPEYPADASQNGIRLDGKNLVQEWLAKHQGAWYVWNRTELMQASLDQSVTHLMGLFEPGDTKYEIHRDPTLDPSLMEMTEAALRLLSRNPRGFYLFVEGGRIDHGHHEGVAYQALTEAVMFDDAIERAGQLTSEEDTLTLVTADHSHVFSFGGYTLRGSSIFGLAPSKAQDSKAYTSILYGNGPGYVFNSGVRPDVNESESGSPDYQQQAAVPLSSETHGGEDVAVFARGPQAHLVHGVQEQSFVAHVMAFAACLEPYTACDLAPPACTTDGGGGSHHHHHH
Description: ELISA binding to ALPI. The settings on record: 500 ng purified VHH. Here is the method: ELISA was used to test the binding and specificity of the VHHs. ALPP CysHis (SEQ ID NO: 263), ALPI His homodimer (SEQ ID NO: 264) or BSA (Thermo Fisher) were coated onto plates and 500 ng of each purified VHH added. Anti-Llama—HRP antibody was used for detection.
For orientation: ELISA stands for enzyme-linked immunosorbent assay.

Series [3] is described as follows: Thermal stability (Protein Thermal Shift assay). It is filed as physicochemical. As to conditions: VHH domains, first derivative analysis. Here is the method: Thermal stability assays used Applied Biosystems StepOne Real Time PCR system with the Protein Thermal Shift™ dye kit (Thermo Fisher). The assay mix was set up so that the protein was at a final concentration of 20 µM in 20 μL. 5 μL of Thermal Shift™ buffer was added alongside 2.5 μL 8× Thermal Shift™ Dye. Assays were run using the StepOne software and data analysed using Protein Thermal Shift™ software. All data are from first derivative analysis.

T1 sequence (P05187 with tags, fused parts or gaps): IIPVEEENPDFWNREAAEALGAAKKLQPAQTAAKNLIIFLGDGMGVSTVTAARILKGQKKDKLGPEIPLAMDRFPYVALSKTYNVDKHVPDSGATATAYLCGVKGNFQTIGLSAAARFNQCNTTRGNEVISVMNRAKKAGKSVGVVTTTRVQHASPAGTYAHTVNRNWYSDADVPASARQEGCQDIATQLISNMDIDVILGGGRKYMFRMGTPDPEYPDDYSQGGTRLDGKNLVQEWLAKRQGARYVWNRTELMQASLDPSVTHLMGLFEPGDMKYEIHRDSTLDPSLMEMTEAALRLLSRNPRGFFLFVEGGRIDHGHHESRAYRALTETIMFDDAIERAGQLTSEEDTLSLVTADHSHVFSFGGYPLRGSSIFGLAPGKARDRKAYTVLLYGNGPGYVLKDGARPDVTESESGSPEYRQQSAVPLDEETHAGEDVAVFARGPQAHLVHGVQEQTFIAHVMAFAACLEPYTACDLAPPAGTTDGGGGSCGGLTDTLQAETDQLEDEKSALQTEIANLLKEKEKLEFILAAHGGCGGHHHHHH

B1: B01: ALPP/ALPPL2 targeting VHH domain, SEQ ID NO: 20 (protein)
VHH: QVQLVESGGGLVQAGGSLRLSCEVTRSPMPIDTMAWYRQAPGRQRELVAIISRSGSTNYADSVKGRFTISRNDTKSTMYKSTMYLKMNTLELEDTGVYYCNAVGLWNGAEYWGQGTQVTVSS
Regarding B1, the epitope bin result in the series with ALPP [1] is “three”. In the series with ALPP [2], the “hALPP Ka” value amounted to 162000 M⁻¹ s⁻¹ and the “hALPP Kd” value is 0.000191 s⁻¹. In addition, the “ELISA hALPI” value with ALPI His homodimer was “No Binding”. Besides, in series [3], the midpoint of thermal melting (Tm) (commonly the temperature at the midpoint of the melting transition) was 82.7 °C.

B2: F08: ALPP/ALPPL2 targeting VHH domain, SEQ ID NO: 35 (protein)
VHH: QVQLVESGGGSVQAGGSLRLSCAASGPSLSNYAMGWFRQAPGKEREFVAGISWGGGRTSYTDSVKGRFTISRDNAKNTVYLQMNNLKPEDTGVYYCAGRYGRGRNVEYEYDYWGQGTQVTVSS
Take B2: the epitope bin result in the series with ALPP [1] was “one”. For the same molecule, in the series with ALPP [2], the “hALPP Ka” value stood at 252000 M⁻¹ s⁻¹ and the “hALPP Kd” value was below 1e-07 s⁻¹. For the same molecule, the “ELISA hALPI” value with ALPI His homodimer is recorded as “No Binding”. For the same molecule, the midpoint of thermal melting (Tm) in series [3] stood at 77.6 °C.

B3: A05: ALPP/ALPPL2 targeting VHH domain, SEQ ID NO: 16; tested C-terminally His-tagged (protein)
VHH: QVQLVESGGGLVQAGASLTLSCAASGFTFNTRSIVWFRQAPGKEREAVSCISKVAGSTYYGDSVQGRFSSSTDNAKNTVSLQMNSLKPEDTAVYTCAASFAPNCYGWSVAANMEYWGEGTMVTVSS
modifications: C-terminal His tag
notes: tested C-terminally His-tagged
Turning to B3, in the series with ALPP [1], the epitope bin entry is given as “one”. In the series with ALPP [2], the “hALPP Ka” value stood at 260000 M⁻¹ s⁻¹ and the “hALPP Kd” value is below 1e-07 s⁻¹. The “ELISA hALPI” value with ALPI His homodimer is “No Binding”. The Tm in series [3] worked out at 69.5 °C.

B4: D10: ALPP targeting VHH domain, SEQ ID NO: 28 (protein)
VHH: QVQLVESGGGLVQPGGSLRLSCAASGSIFSVNTMGWYRQAPGKQRDLVAVATSGGTIHYADSVKGRFTISRDNAKNTVYLQMNSLKPEDTAVYYCNLVVPYGMIAGDHDYWGQGTKVTVSS
B4: the epitope bin result in the series with ALPP [1] is “five”. Also, in the series with ALPP [2], the “hALPP Ka” value worked out at 67300 M⁻¹ s⁻¹ and the “hALPP Kd” value stood at 0.000013 s⁻¹. Moreover, the “ELISA hALPI” value with ALPI His homodimer is “No Binding”. Besides, the Tm in series [3] was 69.9 °C.

B5: E06: ALPP/ALPPL2 targeting VHH domain, SEQ ID NO: 30 (protein)
VHH: QVHLVESGGGLVQAGGSLRLSCAASRRSFSEYAMGWFRQAPGKEREFVAAIGWSGVIEYADSVKGRFTISRDNAKDTVYLQMNSLKPEDTAVYYCAAGLGIRVVSQTPAYWGQGTQVTVSS
B5: the epitope bin entry in the series with ALPP [1] was “one”. In addition, in the series with ALPP [2], the “hALPP Ka” value was 106000 M⁻¹ s⁻¹ and the “hALPP Kd” value is below 1e-07 s⁻¹. In addition, in the series with ALPI His homodimer, the “ELISA hALPI” value is listed as “No Binding”. In series [3], the Tm worked out at 81.1 °C.

B6: C07: ALPP/ALPPL2 targeting VHH domain, SEQ ID NO: 25 (protein)
VHH: QVQLVESGGGLVQAGESLRLACAASGTIFSGNAVGWYRQAPEKQREWVSSITDYGDTDYAEAVKGRFTISRDNAKNTVYLQMNSLKPEDTAVYYCYVYQRGESEEYWGQGTQVTVSS
Turning to B6, in the series with ALPP [1], the epitope bin entry was “four”. Further, in the series with ALPP [2], the “hALPP Ka” value stood at 129000 M⁻¹ s⁻¹ and the “hALPP Kd” value stood at 0.000028 s⁻¹. Further, in the series with ALPI His homodimer, the “ELISA hALPI” value is recorded as “No Binding”. The Tm in series [3] amounted to 70.7 °C.

B7: D04: ALPP/ALPPL2 targeting VHH domain, SEQ ID NO: 26 (protein)
VHH: QVQLVESGGGLVQPGGSLRLSCAASESTFSINVMGWYRQAPGKQRELVATITSGDITNYADSVKGRFTISRDNAENTVYLRTNSLKPEDTAVYYCNARGEYHSGNEYDYWGQGTQVTVSS
In the case of B7, the epitope bin entry with ALPP [1] is recorded as “four”. Besides, in the series with ALPP [2], the “hALPP Ka” value was 85100 M⁻¹ s⁻¹ and the “hALPP Kd” value was below 1e-07 s⁻¹. Moreover, the “ELISA hALPI” value with ALPI His homodimer is reported as “No Binding”. Also, in series [3], the melting temperature (Tm) came out at 59.8 °C.

B8: E10: ALPP/ALPPL2 targeting VHH domain, SEQ ID NO: 31 (protein)
VHH: QVQLVESGGGLVQAGGSLRLSCAVSGRALSDYNIGWFRQAPGKEREFVARKTWDGSSTRYDDSVKGRFTVSIEDAKNTAYLQMSSLKTEDTAVYYCAAGRYSRARGWEYDYWGQGTQVTVSS
For the molecule B8, in the series with ALPP [1], the epitope bin result is on record as “one”. In the series with ALPP [2], the “hALPP Ka” value was determined as 54200 M⁻¹ s⁻¹ and the “hALPP Kd” value was below 1e-07 s⁻¹. For the same molecule, the “ELISA hALPI” value with ALPI His homodimer is “No Binding”. In series [3], the Tm amounted to 71.8 °C.

B9: F05: ALPP/ALPPL2 targeting VHH domain, SEQ ID NO: 34 (protein)
VHH: QVQLVESGGGLVQAGGSLRLSCAASGRAFGDYNIGWFRQAPGKEREFVARRTWDGSSTRYDDSVKGRFTVSIDNAKNTAYLQMNSLKTEDTAVYYCAAGRYSRVRGWEYDYWGQGTQVTVSS
Regarding B9, the epitope bin result with ALPP [1] is “one”. Besides, in the series with ALPP [2], the “hALPP Ka” value came to 13900 M⁻¹ s⁻¹ and the “hALPP Kd” value is below 1e-07 s⁻¹. For the same molecule, the “ELISA hALPI” value with ALPI His homodimer is “No Binding”. The melting temperature (Tm) in series [3] worked out at 70.6 °C.

B10: A06: ALPP/ALPPL2 targeting VHH domain, SEQ ID NO: 17; tested C-terminally His-tagged (protein)
VHH: QVHLVESGGGLVQAGGSLRLSCAASGRTFLSMGWFRQAPGKEREFVAAISWTGGSTGYADSVKGRFTISRESDKETMYLQMNSLKPEDTAVYYCAARGDVYYGGDDATRYKYWGQGTQVTVSS
modifications: C-terminal His tag
notes: as for B3
On to B10, for which the epitope bin result in the series with ALPP [1] is given as “two”. Moreover, in the series with ALPP [2], the “hALPP Ka” value was found to be 117000 M⁻¹ s⁻¹ and the “hALPP Kd” value was 0.000154 s⁻¹. In addition, the “ELISA hALPI” value with ALPI His homodimer is reported as “No Binding”. For the same molecule, the melting temperature (Tm) in series [3] was 73.2 °C.
